Measured values published in US20160264649A1.

Experiments:
Test in all cases: cell-based or functional assay
[1] = target: HIV-1 Env of pseudovirus isolate MGRM-G-027 (subtype G) (HIV-1)
[2] = target: HIV-1 Env of isolate MGRM-D-004 (subtype D) (HIV-1)
[3] = target: HIV-1 Env of isolate 98CN009 (subtype CRF07_BC) (HIV-1)
[4] = target: HIV-1 Env of isolate MGRM-F1-006 (subtype F) (HIV-1)
[5] = target: HIV-1 Env of isolate MGRM-F1-012 (subtype F) (HIV-1)
[6] = target: HIV-1 Env of isolate 98CN006 (subtype CRF08_BC) (HIV-1)
[7] = target: HIV-1 Env of isolate MGRM-D-022 (subtype D) (HIV-1)
[8] = target: HIV-1 Env of isolate MGRM-D-018 (subtype D) (HIV-1)
[9] = target: HIV-1 Env of isolate MGRM-F1-022 (subtype F) (HIV-1)
[10] = target: HIV-1 Env of isolate MGRM-D-028 (subtype D) (HIV-1)
[11] = target: HIV-1 Env of isolate MGRM-D-021 (subtype D) (HIV-1)
[12] = target: HIV-1 Env of isolate MGRM-D-011 (subtype D) (HIV-1)
[13] = target: HIV-1 Env of isolate MGRM-F1-020 (subtype F) (HIV-1)
[14] = target: HIV-1 Env of isolate MGRM-F1-008 (subtype F) (HIV-1)
[15] = target: HIV-1 Env of isolate MGRM-D-005 (subtype D) (HIV-1)
[16] = target: HIV-1 Env of isolate MGRM-D-029 (subtype D) (HIV-1)
[17] = target: HIV-1 Env of isolate MGRM-D-008 (subtype D) (HIV-1)
[18] = target: HIV-1 Env of isolate MGRM-F1-017 (subtype F) (HIV-1)
[19] = target: HIV-1 Env of isolate MGRM-D-019 (subtype D) (HIV-1)
[20] = target: HIV-1 Env of pseudovirus isolate MGRM-G-001 (subtype G) (HIV-1)
[21] = target: HIV-1 Env of pseudovirus isolate MGRM-G-028 (subtype G) (HIV-1)
[22] = target: HIV-1 Env of isolate 92UG001 (subtype D) (HIV-1)
[23] = target: HIV-1 Env of isolate 92UG046 (subtype D) (HIV-1)
[24] = target: HIV-1 Env of isolate MGRM-F1-018 (subtype F) (HIV-1)
[25] = target: HIV-1 Env of isolate MGRM-D-002 (subtype D) (HIV-1)
[26] = target: HIV-1 Env of pseudovirus isolate MGRM-G-025 (subtype G) (HIV-1)
[27] = target: HIV-1 Env of pseudovirus isolate MGRM-G-014 (subtype G) (HIV-1)
[28] = target: HIV-1 Env of isolate MGRM-D-026 (subtype D) (HIV-1)
[29] = target: HIV-1 Env of pseudovirus isolate MGRM-G-019 (subtype G) (HIV-1)
[30] = target: HIV-1 Env of isolate MGRM-F1-013 (subtype F) (HIV-1)
[31] = target: HIV-1 Env of pseudovirus isolate MGRM-G-015 (subtype G) (HIV-1)
[32] = target: HIV-1 Env of isolate MGRM-D-024 (subtype D) (HIV-1)
[33] = target: HIV-1 Env of isolate 92UG024 (subtype D) (HIV-1)
[34] = target: HIV-1 Env of pseudovirus isolate MGRM-G-017 (subtype G) (HIV-1)
[35] = target: envelope of aMLV pseudovirus (negative control)
[36] = target: HIV-1 Env of isolate MGRM-F1-015 (subtype F) (HIV-1)
[37] = target: HIV-1 Env of isolate MGRM-D-003 (subtype D) (HIV-1)
[38] = target: HIV-1 Env of isolate 92UG114 (subtype D) (HIV-1)
[39] = target: HIV-1 Env of isolate MGRM-D-020 (subtype D) (HIV-1)
[40] = target: HIV-1 Env of isolate MGRM-D-001 (subtype D) (HIV-1)
[41] = target: HIV-1 Env of isolate MGRM-F1-004 (subtype F) (HIV-1)
[42] = target: HIV-1 Env of isolate 92UG005 (subtype D) (HIV-1)
[43] = target: HIV-1 Env of isolate MGRM-F1-023 (subtype F) (HIV-1)
[44] = target: HIV-1 Env of isolate MGRM-F1-010 (subtype F) (HIV-1)
[45] = target: HIV-1 Env of pseudovirus isolate MGRM-G-004 (subtype G) (HIV-1)
[46] = target: HIV-1 Env of pseudovirus isolate MGRM-G-006 (subtype G) (HIV-1)
[47] = target: HIV-1 Env of pseudovirus isolate MGRM-G-024 (subtype G) (HIV-1)
[48] = target: HIV-1 Env of isolate MGRM-D-014 (subtype D) (HIV-1)
[49] = target: HIV-1 Env of isolate MGRM-F1-021 (subtype F) (HIV-1)
[50] = target: HIV-1 Env of pseudovirus isolate MGRM-G-016 (subtype G) (HIV-1)
[51] = target: HIV-1 Env of isolate MGRM-D-016 (subtype D) (HIV-1)
[52] = target: HIV-1 Env of pseudovirus isolate MGRM-G-011 (subtype G) (HIV-1)
[53] = target: HIV-1 Env of isolate MGRM-D-012 (subtype D) (HIV-1)
[54] = target: HIV-1 Env of pseudovirus isolate MGRM-G-009 (subtype G) (HIV-1)
[55] = target: HIV-1 Env of isolate MGRM-F1-016 (subtype F) (HIV-1)
[56] = target: HIV-1 Env of pseudovirus isolate MGRM-G-013 (subtype G) (HIV-1)
[57] = target: HIV-1 Env of isolate MGRM-D-013 (subtype D) (HIV-1)
[58] = target: HIV-1 Env of isolate MGRM-F1-014 (subtype F) (HIV-1)

B1: PGT-137 (antibody, V domains shown)
VH: EVHLEESGPGLVRPSETLSLTCTASGGSIRGGEWGDSDYHWGWVRHSPEKGLEWIGSIHWRGTTHYNAPFRGRGRLSIDLSRNQFSLRLTSVTAEDTAVYYCVKHKYHDIVMVVPIAGWFDPWGQGLQVTVSS
VL: EIMMTQSPAILSVSPGDRATLSCRASQSVKNNLAWYQKRPGQAPRLLIFDTSSRASGIPARFSGGGSGTEFTLTVNSMQSEDFATYYCQQYEEWPRTFGQGTKVEIK
[1]
  IC50: 0.228 µg/mL
[2]
  IC50 (neutralization): > 50 µg/mL
[3]
  IC50 (neutralization): 5.06 µg/mL
[4]
  IC50 (neutralization): > 50 µg/mL
[5]
  IC50 (neutralization): > 50 µg/mL
[6]
  IC50 (neutralization): 1.22 µg/mL
[7]
  IC50 (neutralization): > 50 µg/mL
[8]
  IC50 (neutralization): 15.1 µg/mL
[9]
  IC50 (neutralization): 6.23 µg/mL
[10]
  IC50 (neutralization): > 50 µg/mL
[11]
  IC50 (neutralization): > 50 µg/mL
[12]
  IC50 (neutralization): 6.3 µg/mL
[13]
  IC50 (neutralization): 1.93 µg/mL
[14]
  IC50 (neutralization): > 50 µg/mL
[15]
  IC50 (neutralization): > 50 µg/mL
[16]
  IC50 (neutralization): > 50 µg/mL
[17]
  IC50 (neutralization): > 50 µg/mL
[18]
  IC50 (neutralization): > 50 µg/mL
[19]
  IC50 (neutralization): > 50 µg/mL
[20]
  IC50: 41.7 µg/mL
[21]
  IC50: > 50 µg/mL
[22]
  IC50 (neutralization): > 50 µg/mL
[23]
  IC50 (neutralization): > 50 µg/mL
[24]
  IC50 (neutralization): > 50 µg/mL
[25]
  IC50 (neutralization): > 50 µg/mL
[26]
  IC50: > 50 µg/mL
[27]
  IC50: > 50 µg/mL
[28]
  IC50 (neutralization): > 50 µg/mL
[29]
  IC50: 0.126 µg/mL
[30]
  IC50 (neutralization): > 50 µg/mL
[31]
  IC50: > 50 µg/mL
[32]
  IC50 (neutralization): > 50 µg/mL
[33]
  IC50 (neutralization): 0.106 µg/mL
[34]
  IC50: 34.9 µg/mL
[35]
  IC50: > 50 µg/mL
[36]
  IC50 (neutralization): > 50 µg/mL
[37]
  IC50 (neutralization): > 50 µg/mL
[38]
  IC50 (neutralization): > 50 µg/mL
[39]
  IC50 (neutralization): > 50 µg/mL
[40]
  IC50 (neutralization): > 50 µg/mL
[41]
  IC50 (neutralization): 40.3 µg/mL
[42]
  IC50 (neutralization): > 50 µg/mL
[43]
  IC50 (neutralization): > 50 µg/mL
[44]
  IC50 (neutralization): > 50 µg/mL
[45]
  IC50: > 50 µg/mL
[46]
  IC50: > 50 µg/mL
[47]
  IC50: 0.051 µg/mL
[48]
  IC50 (neutralization): > 50 µg/mL
[49]
  IC50 (neutralization): > 50 µg/mL
[50]
  IC50: > 50 µg/mL
[51]
  IC50 (neutralization): > 50 µg/mL
[52]
  IC50: > 50 µg/mL
[53]
  IC50 (neutralization): > 50 µg/mL
[54]
  IC50: > 50 µg/mL
[55]
  IC50 (neutralization): > 50 µg/mL
[56]
  IC50: > 50 µg/mL
[57]
  IC50 (neutralization): > 50 µg/mL
[58]
  IC50 (neutralization): > 50 µg/mL

B2: PGT-136 (antibody, V domains shown)
VH: QLQLQESGPGLVKPSETLSLTCTVSGGSMRGTDWGENDFHYGWIRQSSAKGLEWIGSIHWRGRTTHYKTSFRSRATLSIDTSNNRFSLTFSFVTAADTAVYYCARHKYHDIFRVVPVAGWFDPWGQGLLVTVSS
VL: EIVMTQSPPTLSVSPGETATLSCRASQNVKNNLAWYQLKPGQAPRLLIFDASSRAGGIPDRFSGSGYGTDFTLTVNSVQSEDFGDYFCQQYEEWPRTFGQGTKVDIK
[1]
  IC50: 45.2 µg/mL
[2]
  IC50 (neutralization): > 50 µg/mL
[3]
  IC50 (neutralization): 0.428 µg/mL
[4]
  IC50 (neutralization): > 50 µg/mL
[5]
  IC50 (neutralization): > 50 µg/mL
[6]
  IC50 (neutralization): 0.406 µg/mL
[7]
  IC50 (neutralization): > 50 µg/mL
[8]
  IC50 (neutralization): > 50 µg/mL
[9]
  IC50 (neutralization): 2.42 µg/mL
[10]
  IC50 (neutralization): > 50 µg/mL
[11]
  IC50 (neutralization): > 50 µg/mL
[12]
  IC50 (neutralization): > 50 µg/mL
[13]
  IC50 (neutralization): 9.31 µg/mL
[14]
  IC50 (neutralization): > 50 µg/mL
[15]
  IC50 (neutralization): > 50 µg/mL
[16]
  IC50 (neutralization): > 50 µg/mL
[17]
  IC50 (neutralization): > 50 µg/mL
[18]
  IC50 (neutralization): > 50 µg/mL
[19]
  IC50 (neutralization): > 50 µg/mL
[20]
  IC50: 8.11 µg/mL
[21]
  IC50: > 50 µg/mL
[22]
  IC50 (neutralization): > 50 µg/mL
[23]
  IC50 (neutralization): > 50 µg/mL
[24]
  IC50 (neutralization): > 50 µg/mL
[25]
  IC50 (neutralization): > 50 µg/mL
[26]
  IC50: > 50 µg/mL
[27]
  IC50: > 50 µg/mL
[28]
  IC50 (neutralization): > 50 µg/mL
[29]
  IC50: 44.3 µg/mL
[30]
  IC50 (neutralization): > 50 µg/mL
[31]
  IC50: > 50 µg/mL
[32]
  IC50 (neutralization): > 50 µg/mL
[33]
  IC50 (neutralization): 0.052 µg/mL
[34]
  IC50: > 50 µg/mL
[35]
  IC50: > 50 µg/mL
[36]
  IC50 (neutralization): > 50 µg/mL
[37]
  IC50 (neutralization): > 50 µg/mL
[38]
  IC50 (neutralization): > 50 µg/mL
[39]
  IC50 (neutralization): > 50 µg/mL
[40]
  IC50 (neutralization): > 50 µg/mL
[41]
  IC50 (neutralization): > 50 µg/mL
[42]
  IC50 (neutralization): > 50 µg/mL
[43]
  IC50 (neutralization): > 50 µg/mL
[44]
  IC50 (neutralization): > 50 µg/mL
[45]
  IC50: > 50 µg/mL
[46]
  IC50: > 50 µg/mL
[47]
  IC50: 0.152 µg/mL
[48]
  IC50 (neutralization): > 50 µg/mL
[49]
  IC50 (neutralization): > 50 µg/mL
[50]
  IC50: > 50 µg/mL
[51]
  IC50 (neutralization): > 50 µg/mL
[52]
  IC50: > 50 µg/mL
[53]
  IC50 (neutralization): > 50 µg/mL
[54]
  IC50: > 50 µg/mL
[55]
  IC50 (neutralization): > 50 µg/mL
[56]
  IC50: > 50 µg/mL
[57]
  IC50 (neutralization): > 50 µg/mL
[58]
  IC50 (neutralization): > 50 µg/mL
